Experimental data published in US20210047398A1, “ASPROSIN, A FAST-INDUCED GLUCOGENIC PROTEIN HORMONE” (Baylor College of Medicine, priority 2016, published 2021).

Tests used:
[1] = Body composition, plasma parameters, histology, GTT and ITT in WT mice with increased circulating asprosin; assay type: in vivo
Protocol: Animals—10-week old male WT C57/Bl6 mice were used for all in vivo studies. […] Mice were injected with 2.6 micro molar recombinant His tagged Asprosin or recombinant GFP daily for 10 days via subcutaneous injection. Mice were sacrificed and plasma and various organs were isolated 10 days after viral infusion or peptide injection. The Baylor College of Medicine Institutional Animal Care and Utilization Committee approved all experiments.
Body composition and Serum analyses—Body composition was analyzed with the ECHO-MRI system (Echo medical systems, Texas). Mouse serum was prepared from blood obtained through cardiac puncture and analyzed with the COBAS Integra 400 plus analyzer (Roche). Plasma leptin, FFA, adiponectin and triglyceride levels were measured by using a Mouse Leptin ELISA Kit (Millipore), NEFA C Test Kit (Wako), Mouse Adiponectin ELISA Kit (Millipore) and Serum/plasma triglyceride detection kit (Sigma), respectively.
Histology—Mouse inguinal adipose tissue samples were fixed in 10% formaldehyde for H&E staining. Frozen livers were used for oil-red-O staining to evaluate hepatic triglyceride content.
Blood glucose levels were measured using a glucometer (Life Scan).

[2] = Plasma asprosin, glucose, insulin and hormones in mice after asprosin gain-of-function; assay type: in vivo
Protocol: Animals. […] MgR heterozygous mice were obtained from Jackson labs, and bred to obtain male MgR homozygous mice and WT littermates. 5-week-old male Ob/Ob mice were obtained from Jackson labs. […] For diet induced obesity studies, mice were placed on the adjusted calories diet providing 60% of calories from fat by Harlan-Teklad for 12 weeks. […] Mice were exposed to 30 μg recombinant His-tagged asprosin or recombinant Green Fluorescent Protein (GFP) daily for 10 days via subcutaneous injection. Mice were sacrificed and plasma and various organs were isolated 10 days after virus or peptide injection. For single dose injections, the same protocol was followed as that for daily injections, followed by collection of plasma at the indicated times via tail bleeds for insulin and glucose measurement. Insulin and glucose tolerance tests (ITT and GTT) were performed using standard procedures. […] For immunologic sequestration experiments, mice were injected intra-peritoneally with a 500 μg dose in saline of a custom-built (Thermo Scientific Inc.) anti-asprosin mouse monoclonal antibody directed against amino acids 106-134 (human profibrillin amino acids 2837-2865) or an equivalent dose of isotype matched IgG (Southern Biotech, Inc.). […] The Baylor College of Medicine Institutional Animal Care and Utilization Committee approved all experiments.
Plasma metabolic parameters. Human plasma insulin was measured using a human insulin ELISA kit by Abcam. Mouse plasma insulin was measured using a mouse insulin ELISA kit by Millipore. Mouse plasma glucagon, epinephrine, norepinephrine and corticosterone were measured by the Vanderbilt University Hormone Assay & Analytical Services Core.

[3] = test system: mouse primary hepatocytes
Protocol: Cell Culture. Primary mouse hepatocytes were isolated from 8- to 12-week-old WT mice using standard methodology. […] The cells were treated with 50 nM recombinant asprosin or GFP for 10 minutes for cAMP and PKA assays and for 2 hours for the in vitro glucose production assay. Cells were pretreated with various inhibitors for 1 hour prior to treatment with asprosin, GFP, Glucagon or Epinephrine. cAMP was measured from cell lysates using the cAMP direct immunoassay kit from Cell Biolabs. PKA activity was measured from cell lysates using the PKA kinase activity kit from Enzo Lifesciences, Inc. Media glucose content was measured using the Glucose Colorimetric Assay Kit from Biovision. Results were normalized to protein content.

liver = assay: Liver cAMP level and PKA activity after subcutaneous injection; assay type: in vivo, mice; conditions: single 30 μg dose, 20 minutes
Text: […] Data are represented as the mean±SEM.
Cell Culture. […] Results were normalized to protein content.

[4] = rat, in vivo, iv
[5] = both experiments, 10 days, 4-hour fasted
[6] = 2 hours after single 30 μg dose

B1: recombinant asprosin: 146 amino acid E. coli expressed fusion protein: 6 amino acid N-terminal His tag and 140 amino acid wild type asprosin (FBN1 2732-2871) (protein)
chain: HHHHHHSTNETDASNIEDQSETEANVSLASWDVEKTAIFAFNISHVSNKVRILELLPALTTLTNHNRYLIESGNEDGFFKINQKEGISYLHFTKKKPVAGTYSLQISSTPLYKKKELNQLEDKYDKDYLSGELGDNLKMKIQVLLH
[1]; 60 minute mark, GFP mice had severe hypoglycemia
  blood glucose in insulin tolerance test: maintained their blood glucose levels
[1]; 10 days, FIGS. 5G-5J
  glucose and insulin tolerance tests: consistent with a diabetogenic effect
[1]; both experiments (FBN1 adenovirus; daily subcutaneous asprosin), 10 days
  fat cell volume, inguinal white fat microscopy: larger fat cell volume
[1]; [5]
  plasma leptin and adiponectin: higher levels
  plasma triglycerides and free fatty acids: lower levels
[1]; fasted mice, 10 days, FIGS. 11A-11D
  plasma glucose and insulin: hyperglycemia and hyperinsulinemia
[1]; ten days of daily subcutaneous injection, vs GFP injection
  fat mass (MRI): significant increase
[1]; ten days of daily subcutaneous injection, same in GFP injected mice
  lean mass (MRI): slight but significant decrease
[2]; 15-20 minutes after single 30 μg dose
  plasma levels of catabolic hormones (glucagon, catecholamines, glucocorticoids): no effect
[2]; 15 minute time-point after single dose, 2-hour fast
  plasma insulin: compensatory hyperinsulinemia
[2]; [6]
  glucose uptake in peripheral organs in glucose- and insulin-tolerance tests: little evidence of altered glucose uptake
  peak glucose levels in glucose- and insulin-tolerance tests: altered peak glucose levels
[2]; 10 days of exposure, 2-hour fasted mice
  glucose and insulin levels: elevated
[2]; single 30 μg subcutaneous dose, 2-hour preceding fast
  blood glucose levels after a single dose: immediate spike
[2]; single dose, 2-hour fast
  time to normalized blood glucose levels post injection: ≤ 60 min
[2]; single dose, overnight preceding fast, otherwise similar results
  rate of the blood glucose spike: somewhat slower
[2]; single subcutaneous administration, overnight fasted MgR mice
  insulin deficit of MgR mice: sufficient to completely rescue the insulin deficit
[3]
  hepatocyte PKA activity, dose response: increased in a dose responsive manner
liver
  liver cAMP and protein kinase A activity: sufficient to increase liver cAMP and protein kinase A activity
[4]
  elevation in CSF asprosin: 6 fold
  his-tag signal in the CSF: strong his-tag signal
